We go through one molecule from patent publication US20080076731A1 (UNIVERSITY OF SOUTH FLORIDA, published 2008).

The test deals with T1, SH2-containing inositol-5-phosphatase (SHIP), mouse, endogenous protein in NK cell lysates (mouse, UniProt Q9ES52 1-1191, limits assumed).
T1 construct: Endogenous protein co-immunoprecipitated from NK-enriched C57BL6/J splenocyte lysates (modified RIPA buffer) and detected by Western blot with anti-SHIP P2C6; also called SH2-containing Inositol Polyphosphatase; 135/145 kD SHIP isoforms
T1 sequence (looked up): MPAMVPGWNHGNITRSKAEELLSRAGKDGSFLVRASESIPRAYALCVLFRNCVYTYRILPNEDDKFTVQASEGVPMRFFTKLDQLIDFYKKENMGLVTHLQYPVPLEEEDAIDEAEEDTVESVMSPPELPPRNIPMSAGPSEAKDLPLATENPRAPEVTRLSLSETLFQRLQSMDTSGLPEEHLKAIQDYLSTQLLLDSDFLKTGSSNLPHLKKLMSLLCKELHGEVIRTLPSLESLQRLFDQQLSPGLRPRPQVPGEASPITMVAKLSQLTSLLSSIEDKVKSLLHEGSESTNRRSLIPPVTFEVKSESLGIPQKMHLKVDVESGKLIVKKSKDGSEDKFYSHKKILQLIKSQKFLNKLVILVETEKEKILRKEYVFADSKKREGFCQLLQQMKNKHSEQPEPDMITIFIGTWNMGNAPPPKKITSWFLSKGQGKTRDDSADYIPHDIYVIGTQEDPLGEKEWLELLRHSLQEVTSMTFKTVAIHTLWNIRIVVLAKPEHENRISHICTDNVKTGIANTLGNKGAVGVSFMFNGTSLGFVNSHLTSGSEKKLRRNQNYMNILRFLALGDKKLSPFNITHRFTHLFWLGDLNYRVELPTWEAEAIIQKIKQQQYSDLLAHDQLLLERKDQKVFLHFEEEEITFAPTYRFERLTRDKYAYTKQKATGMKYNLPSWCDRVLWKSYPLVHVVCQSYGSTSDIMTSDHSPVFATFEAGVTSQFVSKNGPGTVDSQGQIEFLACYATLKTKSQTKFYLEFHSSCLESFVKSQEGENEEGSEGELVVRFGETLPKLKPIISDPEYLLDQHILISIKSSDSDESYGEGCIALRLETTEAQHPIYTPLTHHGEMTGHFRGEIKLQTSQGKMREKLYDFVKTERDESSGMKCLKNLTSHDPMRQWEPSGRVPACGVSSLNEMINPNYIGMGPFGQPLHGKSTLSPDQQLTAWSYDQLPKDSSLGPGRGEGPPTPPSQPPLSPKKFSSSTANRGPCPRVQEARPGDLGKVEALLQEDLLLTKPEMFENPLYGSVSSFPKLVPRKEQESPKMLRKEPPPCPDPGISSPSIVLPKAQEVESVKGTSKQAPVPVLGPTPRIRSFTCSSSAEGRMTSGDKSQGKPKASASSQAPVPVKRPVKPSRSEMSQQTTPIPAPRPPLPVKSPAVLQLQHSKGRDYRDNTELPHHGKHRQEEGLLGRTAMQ
In words: co-immunoprecipitation from NK-enriched splenocyte lysates, Western blot with anti-SHIP P2C6. The source says:
Equal quantities of protein from cells lysates prepared from SHIP^{+/+} and SHIP^{-/-} NK cells are resolved on a 4-12% Tris-Bis polyacrylamide gel (Invitrogen), transferred to a nitrocellulose membrane (Amersham) and the filters probed with an anti-Akt-P(Threo) antibody (Cell Signaling) at a 1:1000 dilution. […] The blot is then stripped and reprobed in a similar manner using an anti-β-actin antibody (Cell Signaling) as an internal control for protein loading.
Thus, in FIG. 5, SHIP is shown to be recruited to NK inhibitory receptors and to oppose Akt activation in vivo. […] A mock immunoprecipitation of the NK lysates with an IgG2a antibody is analyzed in parallel as a negative control. The results of these immunoprecipitations are representative of two independent analyses of NK-enriched splenocytes. […] Immunoprecipitation of SHIP from NK cell lysates serves as positive control in both (A) and (B). In (A) a one-tenth exposure of the SHIP lane enables the 135/145 kD SHIP isoforms to be distinguished clearly. […] To control for the amount of cell lysate loaded in each sample, the Akt-P blot is stripped and re-probed with an antibody specific for β-actin, GAPDH, and cc tubulin. […] Immunoprecipitation with a murine IgG2a antibody (IgG2a) is analyzed as a negative control and SHIP is immunoprecipitated as a positive control. […]

B1: Ly49G2, mouse NK inhibitory receptor (receptor, UniProt Q60654-2 1-267, looked up)
chain: MSEQEVTYSTVRFHESSRLQKLVRTEEPQRPREACYREYSVPWKLIVIACGILCFLLLVTVALLAITIFQHSQQKHELQETLNCHDNCSPTQSDVNLKDELLRNKSIECRPGNDLLESLSRDQNRWYSETKTFSDSSQHTGRGFEKYWFCYGIKCYYFNMDRKTWSGCKQTCQISSLSLLKIDNEDELKFLQNLAPSDISWIGLSYDNKKKDWVWIDNGPSKLALNTTKYNIRDGLCMSLSKTRLDNGDCDKSYICICGKRLDKFPH
notes: Immunoprecipitated with anti-Ly49G2 (4D11)
With B1, the binding result was “no binding”.
